Source: article PMC12990707, “Multiple novel hepatocellular carcinoma signature genes are commonly controlled by the master pluripotency factor OCT4”

Target: OCT4 (human, UniProt Q01860 1-360)
Assay: EMSA; LightShift chemiluminescent EMSA kit (Thermo 20148) per manufacturer; buffer, salt, pH and temperature not stated
Conditions: protein: recombinant; label: 5' biotin on both strands; blunt

Sequence of OCT4 (Q01860 whole entry): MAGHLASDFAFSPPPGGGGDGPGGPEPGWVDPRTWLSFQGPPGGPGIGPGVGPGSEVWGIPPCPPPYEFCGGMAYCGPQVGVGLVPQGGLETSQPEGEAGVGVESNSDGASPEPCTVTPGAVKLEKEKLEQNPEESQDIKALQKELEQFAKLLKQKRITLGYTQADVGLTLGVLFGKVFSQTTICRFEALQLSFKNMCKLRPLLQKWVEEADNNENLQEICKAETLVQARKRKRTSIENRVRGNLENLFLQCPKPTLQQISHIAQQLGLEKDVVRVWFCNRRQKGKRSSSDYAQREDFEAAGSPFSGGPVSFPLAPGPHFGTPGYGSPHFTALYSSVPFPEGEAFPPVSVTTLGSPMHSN

| Binder | binding result |
| --- | --- |
| TK1 probe 1 (dsDNA) DNA 1: GGGACCTGGCACGCACTAGGCGCTCTGCATGCCCACAGGAGTGCTCTAGACG DNA 2: CGTCTAGAGCACTCCTGTGGGCATGCAGAGCGCCTAGTGCGTGCCAGGTCCC | binds |
| TK1 probe 2 (dsDNA) DNA 1: CCTGGCAGGGTCTACGGATATTATTAGCATAGTCAGGACTTCAATTTTCTTT DNA 2: AAAGAAAATTGAAGTCCTGACTATGCTAATAATATCCGTAGACCCTGCCAGG | binds |
| TK1 probe 3 (dsDNA) DNA 1: CGGGCTAACACCTTCACACTTTATGCAGAAAGTAACAAGGAACCATTCTGAG DNA 2: CTCAGAATGGTTCCTTGTTACTTTCTGCATAAAGTGTGAAGGTGTTAGCCCG | binds |
